Positions count from the first letter of the chain named.
B1: NRP1-105 (VHH)
VHH: EVQLVESGGGLVQPGGSLRLSCAASGTTFRINVMGWFRQAPGKERELVAAMRWSSSSTDYADSVKGRFTISADNSKNTAYLQMNSLKPEDTAVYYCAASIEGVSGRWGQGTLVTVSS
B2: NRP1-82 (VHH)
VHH: EVQLVESGGGLVQPGGSLRLSCAASGRTFNRYPMGWFRQAPGKEREWVSAINSNGNRYYYADSVKGRFTISADNSKNTAYLQMNSLKPEDTAVYYCAIHTSREIWGQGTLVTVSS
B3: NRP1-233 (antibody, IgG2, V domains shown)
VH: EVQLLESGGGLVQPGGSLRLSCAASGFSFSTYAMTWVRQAPEKGLEWVSSIGGSGRSTYYADSVKGRFTISRDNSKNTLYLQMNSLRAEDTAVYYCARLKRGGTNLVRKATRYQFYGMDAWGQGTLVTVSS
VL: DIQMTQSPSSLSASVGDRVTITCRASQSISSYLAWYQQKPGKAPKLLIYAGSGLQSGVPSRFSGSGSGTDFTLTISSLQPEDFATYYCQQSFTSPLTFGGGTKVEIK
B4: NRP1-277 (antibody, IgG2, V domains shown)
VH: EVQLLESGGGLVQPGGSLRLSCAASGFRFSTYAMSWVRQAPGKGLEWVSTVSGSGAYTYYADSVKGRFTISRDNSKNTLYLQMNSLRAEDTAVYYCADIAVAGTWGQGTLVTVSS
VL: B3 VL with S28R, S31D, A34N, G51A, G53T, T93S, S94T, L96I
B5: NRP1-251 (antibody, IgG2, V domains shown)
VH: EVQLLESGGGLVQPGGSLRLSCAASGSTFSSHAMSWVRQAPGKGLEWVSGISASGGSTHYADSVKGRFTISRDNSKNTLYLQMNSLRAEDTAVYYCARLKRGGTNLVRKATRYQFYGMDAWGQGTLVTVSS
VL: B3 VL with I29V, Y32H, A34N, A50D, G51A, G53S, F92Y, T93K, S94T, L96V
B6: NRP1-253 (antibody, IgG2, V domains shown)
VH: EVQLLESGGGLVQPGGSLRLSCAASGFTFSNHAMSWVRQAPGKGLEWVSTISGSGGSTYYVDSVKGRFTISRDNSKNTLYLQMNSLRAEDTAVYYCARGGPAPLFDYWGQGTLVTVSS
VL: B3 VL with A25S, A34N, G51A, G53N, L54F, S91T, F92Y, T93S, S94I
B7: NRP1-245 (antibody, IgG2, V domains shown)
VH: EVQLLESGGGLVQPGGSLRLSCAASGLTFSRYAMSWVRQAPGKGLEWVSTISGRGGSTNYADSVKGRFTISRDNSKNTLYLQMNSLRAEDTAVYYCAKDSARFISPPRGIRIRGVVLSGFDSWGQGTLVTVSS
VL: B3 VL with S31T, Y32S, A34N, G51T, G53S, S91A, F92Y, T93S, S94T
B8: NRP1-84 (VHH)
VHH: EVQLVESGGGLVQPGGSLRLSCAASGRTFSNYKMGWFRQAPGKEREFVARIFTDDGDSYYADSVKGRFTISADNSKNTAYLQMNSLKPEDTAVYYCAKWDGLGTLWGQGTLVTVSS
B9: NRP1-121 (antibody, IgG2, V domains shown)
VH: QVQLVQSGAEVKKPGSSVKVSCKASGGTFSNYAISWVRQAPGQGLEWMGGIIPINYAQKFQGRVTITADESTSTAYMELSSLRSEDTAVYYCVRRVVGATPFDYWGQGTLVTVSS
VL: DIQMTQSPSSLSASVGDRVTITCRASQIIRRYLNWYQQKPGKAPKLLIYPASSLQSGVPSRFSGSGSGTDFTLTISSLQPEDFATYYCQQAYSTPMFGQGTKVEIK
B10: NRP1-263 (antibody, IgG2, V domains shown)
VH: EVQLLESGGGLVQPGGSLRLSCAASGFTFKKYAMSWVRQAPGKGLEWVSTISGSGRSTYYADSVKGRFTISRDNSKNTLYLQMNSLRAEDTAVYYCARDLARGTMPRGVIIPHNWFDPWGQGTLVTVSS
VL: DIQMTQSPSSLSASVGDRVTITCRASQTISNYLNWYQQKPGKAPKLLIYGATSLQSGVPSRFSGSGSGTDFTLTISSLQPEDFATYYCQQSYNTPTTFGGGTKVEIK
B11: NRP1-269 (antibody, IgG2, V domains shown)
VH: EVQLLESGGGLVQPGGSLRLSCAASGFTFSNYVMTWVRQAPGKGLEWVSTISGSGGGTFYADSVKGRFTISRDNSKNTLYLQMNSLRAEDTAVYYCATDTVWASAWGSWGQGTLVTVSS
VL: B10 VL with S30R, N31K, G50A, T52S, L78M, N93S, T96I
B12: NRP1-296 (antibody, IgG2, V domains shown)
VH: EVQLLESGGGLVQPGGSLRLSCAASGFTFSGHAMSWVRQAPGKGLEWVSGISGSGGKIYYADSVKGRFTISRDNSKNTLYLQMNSLRAEDTAVYYCTRDVRSKDYVRGSSRYHGGMDVWGQGTLVTVSS
VL: B10 VL with Q27H, T28S, N31R, G50S, T52S, Q55R, S91R, N93I, T96W
B13: NRP1-134 (antibody, IgG2, V domains shown)
VH: EVQLLESGGGLVQPGGSLRLSCAASGFTFSNYGVSWVRQAPGKGLEWVSEISPSGKKKYYADSVKGRFTISRDNSKNTLYLQMNSLRAEDTAVYYCAKTTDIQRLNSAFDYWGQGTLVTVSS
VL: DIQMTQSPSSLSASVGDRVTITCRASQPIAYFLSWYQQKPGKAPKLLIYDASSLHTGVPSRFSGSGSGTDFTLTISSLQPEDFATYYCSSRDKSGSRLVTFGQGTKVEIK
B14: NRP1-132 (antibody, IgG2, V domains shown)
VH: EVQLLESGGGLVQPGGSLRLSCAASGFTFGDHGMGWVRQAPGKGLEWVSYITPKGDHTYYADSVKGRFTISRDNSKNTLYLQMNSLRAEDTAVYYCASLPKRGPRFDYWGQGTLVTVSS
VL: DIQMTQSPSSLSASVGDRVTITCRASQNIRSYLNWYQQKPGKAPKLLIYRLSVLQSGVPSRFSGSGSGTDFTLTISSLQPEDFATYYCQQGYTLPWTFGQGTKVEIK
B15: NRP1-18 (VHH)
VHH: EVQLVESGGGLVQPGGSLRLSCAASGFRFSSYGMGWFRQAPGKEREFVAFISGNPSRTYYADSVKGRFTISADNSKNTAYLQMNSLKPEDTAVYYCAARPYQKYNWASASYNWGQGTLVTVSS
B16: NRP1-210 (antibody, IgG2, V domains shown)
VH: EVQLLESGGGLVQPGGSLRLSCAASGFTFSSYVMAWVRQAPGKGLEWVSTISASGGTTYYADSVKGRFTISRDNSKNTLYLQMNSLRAEDTAVYYCAKVGSGWYFWGQGTLVTVSS
VL: B3 VL with A25T, S31R, A34N, G51A, G53S, S56G, F92Y, S94V, L96I
B17: NRP1-35 (VHH)
VHH: EVQLVESGGGLVQPGGSLRLSCAASGSIFSFNAMGWFRQAPGKERELVASITPGGNINYADSVKGRFTISADNSKNTAYLQMNSLKPEDTAVYYCARDVEGGWYGLSYGMDVWGQGTLVTVSS
B18: NRP1-4 (VHH)
VHH: EVQLVESGGGLVQPGGSLRLSCAASGNIFINNAMGWFRQAPGKERELVAAITSSSGRRWYADSVKGRFTISADNSKNTAYLQMNSLKPEDTAVYYCAARRIVNVEGAYRDWGQGTLVTVSS
B19: NRP1-128 (antibody, IgG2, V domains shown)
VH: EVQLLESGGGLVQPGGSLRLSCAASGFTFSRYAMNWVRQAPGKGLEWVSAISGSGGNTYYADSVKGRFTISRDNSKNTLYLQMNSLRAEDTAVYYCARVRRGGATDYWGQGTLVTVSS
VL: DIQMTQSPSSLSASVGDRVTITCRASQDVSSGVAWYQQKPGKAPKLLIYGKNIRPSGVPSRFSGSGSGTDFTLTISSLQPEDFATYYCQQTYSPPLTFGQGTKVEIK
B20: NRP1-33 (VHH)
VHH: EVQLVESGGGLVQPGGSLRLSCAASGRTFSSGTMGWFRQASGKEREFVARINSDGSTNYADSVKGRFTISADNSKNTAYLQMNSLKPEDTAVYYCAKWSSSWYGYYYYGMDVWGQGTLVTVSS
B21: NRP1-11 (VHH)
VHH: EVQLVESGGGLVQPGGSLRLSCAASGRTFTTYPMGWFRQAPGKEREFVAAITWNGASTSYADSVKGRFTISADNSKNTAYLQMNSLKPEDTAVYYCAKGGGYSGYDYDYWGQGTLVTVSS
B22: NRP1-204 (antibody, IgG2, V domains shown)
VH: EVQLLESGGGLVQPGGSLRLSCAASGFTFSAFAMSWVRQAPGKGLEWVSGTSGSGGSTYYADSVKGRFTISRDNSKNTLYLQMNSLRAEDTAVYYCARHRAYSYGLDYWGQGTLVTVSS
VL: B10 VL with S26R, T28S, N31T, G50S, T52S, S53T, Q55E, N93R, T96W
B23: NRP1-15 (VHH)
VHH: EVQLVESGGGLVQPGGSLRLSCAASGFTFSNYDMGWFRQAPGKEREFVAAISWSGTLTSYADSVKGRFTISADNSKNTAYLQMNSLKPEDTAVYYCARQRETGHLILYSDYYYGMDVWGQGTLVTVSS

target: neuropilin-1 (NRP1) on HEK293 cells overexpressing NRP1 (UniProt O14786); test: flow cytometry, HEK293-NRP1 vs HEK293

Compared with B1, B2 is higher in 100 nM FACS (MFI Ratio): 1.8 for the first, 2 for the second.

Compared with B3, B4 is lower in 100 nM FACS (MFI Ratio): 1.7 for the first, 1.5 for the second.

B5 and B6 are the same in 100 nM FACS (MFI Ratio): 1.5 for the first, 1.5 for the second.

First: B7
Second: B8
The 100 nM FACS (MFI Ratio) of the first is higher: 2 for the first, 1.7 for the second.

Going from B9 to B10, the 100 nM FACS (MFI Ratio) rises from 1.5 to 1.9.

Going from B11 to B12, the 100 nM FACS (MFI Ratio) falls from 1.9 to 1.5.

target: neuropilin-1 (NRP1), analyte in SPR (UniProt O14786 22-644, limits assumed); test: SPR, Carterra LSA, antibody coupled
Description: SPR experiments were performed on a Carterra LSA SPR biosensor equipped with a HC30M chip at 25° C. in HBS-TE. Antibodies were diluted to 10 μg/mL and amine-coupled to the sensor chip by EDC/NHS activation, followed by ethanolamine HCl quenching. Increasing concentrations of analyte were flowed over the sensor chip in HBS-TE with 0.5 mg/mL BSA with 5-minute association and 15-minute dissociation. Following each injection cycle the surface was regenerated with 2× 30-second injections of IgG elution buffer (Thermo). Data were analyzed in Carterra's Kinetics Tool software with 1:1 binding model.

B13: no binding.
B14: no binding.
B16: no binding.
B17: no binding.
B19: no binding.
B21: no binding.
B23: no binding.

First: B15
Second: B18
The Kd of the first is 1.6-fold higher: 290 nM for the first, 183 nM for the second. The second binds more tightly here.

First: B20
Second: B22
The Kd of the first is 38000-fold lower: 10.8 nM for the first, 408000 nM for the second. The first binds more tightly here.

First: B15
Second: B18
The koff of the first is 13-fold lower: 0.00374 s⁻¹ for the first, 0.047 s⁻¹ for the second.

Going from B20 to B22, the koff rises from 0.0167 s⁻¹ to 0.0897 s⁻¹ (5.4-fold).

Going from B15 to B18, the kon rises from 12900 M⁻¹ s⁻¹ to 256000 M⁻¹ s⁻¹ (20-fold).

First: B20
Second: B22
The kon of the first is 7000-fold higher: 1.55e+06 M⁻¹ s⁻¹ for the first, 220 M⁻¹ s⁻¹ for the second.

target: T1, neuropilin-1 (NRP1) on HEK293 cells overexpressing NRP1 (UniProt O14786 22-923, limits assumed); test: flow cytometry, HEK293-NRP1 vs HEK293
T1 construct: whole, on cells

Going from B13 to B14, the “100 nM FACS (MFI Ratio)” value falls from 1.9 to 0.8.

Going from B15 to B16, the “100 nM FACS (MFI Ratio)” value falls from 20.8 to 2.1.

Compared with B17, B18 is higher in “100 nM FACS (MFI Ratio)” value: 2.9 for the first, 30.9 for the second.

Compared with B19, B20 is higher in “100 nM FACS (MFI Ratio)” value: 1.2 for the first, 335 for the second.

Compared with B21, B22 is higher in “100 nM FACS (MFI Ratio)” value: 2.3 for the first, 9.2 for the second.

With B23 the “100 nM FACS (MFI Ratio)” value was 6.5.

From patent US20230265198A1 (TWIST BIOSCIENCE, published 2023)
